What was measured:
Herves transposase [1] = target: T1, Herves transposase (Anopheles gambiae, UniProt Q5QIT5 1-603); test: EMSA; one complex; EMSA: 16 mM Tris pH 8.0, 150 mM NaCl, 1 mM DTT, 0.25% Triton X, 0.2 ug BSA, 0.4 ug T3 ss oligo, 0.5 ug poly(dI-dC), 4 C; 100 nM DNA, 850 nM transposase; same binding conditions for DNase I; conditions: protein: recombinant; tags: His tag (pBAD myc/HisA vector); label: 32P as probe
T1 sequence: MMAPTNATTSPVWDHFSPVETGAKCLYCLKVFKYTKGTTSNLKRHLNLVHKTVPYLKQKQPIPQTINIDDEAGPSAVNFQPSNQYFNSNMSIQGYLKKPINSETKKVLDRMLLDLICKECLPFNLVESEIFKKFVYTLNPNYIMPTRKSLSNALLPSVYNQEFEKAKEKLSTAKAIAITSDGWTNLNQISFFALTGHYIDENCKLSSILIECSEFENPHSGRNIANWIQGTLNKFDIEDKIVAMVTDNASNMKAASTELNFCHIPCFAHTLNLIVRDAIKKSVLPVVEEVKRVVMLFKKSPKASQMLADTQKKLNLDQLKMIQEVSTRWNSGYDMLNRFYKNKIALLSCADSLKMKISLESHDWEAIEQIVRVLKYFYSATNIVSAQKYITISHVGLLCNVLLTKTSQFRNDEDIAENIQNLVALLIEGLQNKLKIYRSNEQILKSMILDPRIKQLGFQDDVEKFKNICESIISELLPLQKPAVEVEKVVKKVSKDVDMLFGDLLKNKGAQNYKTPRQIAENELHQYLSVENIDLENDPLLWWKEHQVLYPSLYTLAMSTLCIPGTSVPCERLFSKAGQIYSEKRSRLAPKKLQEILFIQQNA

Herves transposase [2] = target: T1, Herves transposase; test: EMSA; EMSA: 16 mM Tris pH 8.0, 150 mM NaCl, 1 mM DTT, 0.25% Triton X, 0.2 ug BSA, 0.4 ug T3 ss oligo, 0.5 ug poly(dI-dC), 4 C; 100 nM DNA, 850 nM transposase; same binding conditions for DNase I; conditions: protein: recombinant; tags: His tag (pBAD myc/HisA vector); label: 32P as probe
Herves transposase [3] = target: T1, Herves transposase; test: competition; vs Herves-L 1-100 probe, partial compared with bp 1-100; 200-fold; EMSA: 16 mM Tris pH 8.0, 150 mM NaCl, 1 mM DTT, 0.25% Triton X, 0.2 ug BSA, 0.4 ug T3 ss oligo, 0.5 ug poly(dI-dC), 4 C; 100 nM DNA, 850 nM transposase; same binding conditions for DNase I; conditions: protein: recombinant; tags: His tag (pBAD myc/HisA vector); label: 32P as probe
Herves transposase [4] = target: T1, Herves transposase; test: EMSA; two complexes; EMSA: 16 mM Tris pH 8.0, 150 mM NaCl, 1 mM DTT, 0.25% Triton X, 0.2 ug BSA, 0.4 ug T3 ss oligo, 0.5 ug poly(dI-dC), 4 C; 100 nM DNA, 850 nM transposase; same binding conditions for DNase I; conditions: protein: recombinant; tags: His tag (pBAD myc/HisA vector); label: 32P as probe
Herves transposase [5] = target: T1, Herves transposase; test: EMSA; two complexes; competed by self; EMSA: 16 mM Tris pH 8.0, 150 mM NaCl, 1 mM DTT, 0.25% Triton X, 0.2 ug BSA, 0.4 ug T3 ss oligo, 0.5 ug poly(dI-dC), 4 C; 100 nM DNA, 850 nM transposase; same binding conditions for DNase I; conditions: protein: recombinant; tags: His tag (pBAD myc/HisA vector); label: 32P
Herves transposase [6] = target: T1, Herves transposase; test: competition; vs Herves-L 1-100 probe; 200-fold; EMSA: 16 mM Tris pH 8.0, 150 mM NaCl, 1 mM DTT, 0.25% Triton X, 0.2 ug BSA, 0.4 ug T3 ss oligo, 0.5 ug poly(dI-dC), 4 C; 100 nM DNA, 850 nM transposase; same binding conditions for DNase I; conditions: protein: recombinant; tags: His tag (pBAD myc/HisA vector)
Herves transposase [7] = target: T1, Herves transposase; test: EMSA; three complexes; competed by unlabeled bp 1-100; EMSA: 16 mM Tris pH 8.0, 150 mM NaCl, 1 mM DTT, 0.25% Triton X, 0.2 ug BSA, 0.4 ug T3 ss oligo, 0.5 ug poly(dI-dC), 4 C; 100 nM DNA, 850 nM transposase; same binding conditions for DNase I; conditions: protein: recombinant; tags: His tag (pBAD myc/HisA vector); label: 32P

B1: Herves-R bp 61-90 (dsDNA)
DNA 1: TGAACTGAGCGTGAATCGCGATTCAATCGT
DNA 2: ACGATTGAATCGCGATTCACGCTCAGTTCA
Herves transposase [1]
  binding result: binds

B2: Herves-R bp 46-75 (dsDNA)
DNA 1: GTTCTTTCATTAACATGAACTGAGCGTGAA
DNA 2: TTCACGCTCAGTTCATGTTAATGAAAGAAC
Herves transposase [2]
  binding result: no binding

B3: Herves-L bp 28-60 (dsDNA)
DNA 1: GTACGATTCATTCAATTCATCCTAAAGAACGAA
DNA 2: TTCGTTCTTTAGGATGAATTGAATGAATCGTAC
Herves transposase [3]
  binding result: binds

B4: Herves-R bp 15-45 (dsDNA)
DNA 1: TCGATTCATTACCATGAACGTGAATTTACCG
DNA 2: CGGTAAATTCACGTTCATGGTAATGAATCGA
Herves transposase [1]
  binding result: binds

B5: Herves-R bp 1-30 (dsDNA)
DNA 1: TAGGGTTGGGCAATTCGATTCATTACCATG
DNA 2: CATGGTAATGAATCGAATTGCCCAACCCTA
Herves transposase [4]
  binding result: binds

B6: (CGATTCAT)4 (dsDNA)
DNA 1: CGATTCATCGATTCATCGATTCATCGATTCAT
DNA 2: ATGAATCGATGAATCGATGAATCGATGAATCG
Herves transposase [4]
  binding result: binds

B7: Herves-R bp 1-100 (dsDNA)
DNA 1: TTGACGTGAACGATTGAATCGCGATTCACGCTCAGTTCATGTTAATGAAAGAACCGGTAAATTCACGTTCATGGTAATGAATCGAATTGCCCAACCCTA
DNA 2: TAGGGTTGGGCAATTCGATTCATTACCATGAACGTGAATTTACCGGTTCTTTCATTAACATGAACTGAGCGTGAATCGCGATTCAATCGTTCACGTCAA
Herves transposase [5]
  binding result: binds

B8: Herves-L bp 1-30 (dsDNA)
DNA 1: TAGAGTTGTGCCTCAAGAACCAGAACTGTA
DNA 2: TACAGTTCTGGTTCTTGAGGCACAACTCTA
Herves transposase [6]
  binding result: no binding

B9: Herves-L bp 1-100 (dsDNA)
DNA 1: TAGAGTTGTGCCTCAAGAACCAGAACTGTACGATTCATTCAATTCATCCTAAAGAACGAATGACCTACGTTCATCTAATCAACGTTCATCGATTCTTTAT
DNA 2: ATAAAGAATCGATGAACGTTGATTAGATGAACGTAGGTCATTCGTTCTTTAGGATGAATTGAATGAATCGTACAGTTCTGGTTCTTGAGGCACAACTCTA
Herves transposase [7]
  binding result: binds

B10: Herves-L bp 12-48 (dsDNA)
DNA 1: CTCAAGAACCAGAACTGTACGATTCATTCAATTCATC
DNA 2: GATGAATTGAATGAATCGTACAGTTCTGGTTCTTGAG
Herves transposase [4]
  binding result: binds

Source: paper PMC3143072, “DNA binding activities of the Herves transposase from the mosquito Anopheles gambiae”
